B1: Homeobox protein SIX6, residues 134 to 184; numbered along this chain, O95475 (parent)
chain: CFKERTRHLLREWYLQDPYPNPSKKRELAQATGLTPTQVGNWFKNRRQRDR

Variants of: B1
Experiment: abundance fitness (aPCA) (normalised: wild type 0, dead -1); higher = more abundant; growth selection in yeast, the domain comes from the species named
Settings: Homo sapiens

Abundance fitness: each site, then its substitutions
T37: R 0.084 | E 0.018 | M -0.249 | Y -0.236 | D 0.026 | N -0.169 | Q 0.026 | F -0.28 | L -0.197 | H -0.049 | I -0.1 | V -0.076 | K 0.568 | S -0.043 | G -0.133 | C -0.109 | A -0.005 | P -0.673 | W -0.545
G33: R -0.738 | C -0.757 | Q -0.514 | K -0.679 | T -0.727 | E -0.722 | W -0.853 | N -0.499 | F -0.946 | S -0.598 | I -0.936 | H -0.61 | M -0.555 | L -0.735 | A -0.712 | P -0.848 | D -0.629 | Y -0.741
A29: G -0.397 | E -0.815 | W -0.923 | D -0.504 | Q -0.527 | R -0.982 | F -1.07 | N -1.03 | T -1.07 | L -0.917 | I -0.727 | S -0.058 | V -0.767 | H -0.944 | P -0.916
E27: S -0.679 | H -0.773 | A -0.207 | K -0.71 | G -0.805 | T -0.513 | P -0.845 | F -0.318 | V -0.731 | C -0.441 | D -0.194 | M -0.696 | R -0.437 | Q -0.758 | W -0.231 | N -0.683 | L -0.483
Q38: H -0.878 | V -0.87 | N -0.467 | D -0.626 | P -0.9 | A -0.269 | L -0.826 | I -0.702 | K -0.608 | F -0.741 | R -0.868 | C -0.798 | S -0.841 | G -0.728 | M -0.442 | E -0.301 | W -0.742 | T -0.676 | Y -0.77
G40: M -0.533 | D -0.503 | C -0.279 | V -0.605 | P -0.783 | K 0.335 | E -0.032 | Q -0.245 | L -0.615 | R 0.127 | T -0.175 | A 0.01 | S 0.152 | F 0.225 | H -0.159 | W -0.467 | N -0.579
K24: I -0.051 | S -0.192 | N -0.281 | H -0.493 | V -0.13 | C -0.462 | A -0.009 | T -0.058 | G -0.374 | W -0.556 | R -0.104 | F -0.984 | E -0.188 | P -0.864 | Q 0.074 | M -0.139 | D -0.197 | Y -0.714
N41: W -0.754 | G -0.627 | S -0.342 | L -0.278 | E -0.121 | R 0.155 | T -0.259 | H -0.392 | Y -0.995 | I -0.642 | A -0.511 | P -1 | V -0.269 | Q -0.124 | M -0.38 | K 0.351 | C -0.158
T32: R -0.799 | S -0.312 | E -0.519 | Q -1.01 | V -0.294 | K -0.932 | F -0.947 | C -0.174 | W -0.873 | Y -0.84 | L -0.384 | D -0.719 | G -0.863 | A -0.572 | P -0.783 | I -0.606 | N -0.84
T35: R -0.813 | S -0.128 | C -0.979 | I -0.885 | W -0.822 | D -0.663 | F -0.773 | M -0.703 | E -0.399 | L -0.733 | H -0.749 | Y -0.953 | A -0.846 | P -0.877 | Q -0.809 | G -0.886 | N -0.581
Q30: C -0.301 | V -0.059 | L -0.25 | F -0.239 | I 0.036 | A -0.219 | K -0.03 | E -0.193 | R -0.365 | G -0.276 | N -0.374 | M -0.006 | T -0.051 | H -0.205 | P -0.893 | W 0.057 | Y -0.381 | D -0.064
K25: S -0.423 | H -0.031 | F -0.272 | W -0.519 | R -0.098 | M -0.126 | D -0.741 | Y -0.338 | A -0.334 | I 0.118 | T -0.074 | P -0.648 | N -0.48 | G -0.789 | L 0.049 | Q 0.158
L34: E -0.624 | C -0.806 | M -0.044 | P -0.747 | W -0.548 | G -0.742 | Y -0.587 | F -0.725 | V -0.861 | A -0.911 | T -0.669 | N -0.826 | Q -0.731 | S -0.707 | I -0.638 | R -0.719 | H -0.896 | K -0.722 | D -0.936
R26: K -0.024 | Y -0.378 | Q 0.264 | T -0.429 | C 0.055 | P -0.836 | H -0.121 | N 0.069 | V 0.055 | L 0.039 | W -0.475 | I -0.382 | E 0.037 | S -0.182 | F -0.085
W42: F -0.649 | A -1.05 | K -0.952 | G -0.851 | P -0.983 | S -0.898 | Q -0.726 | D -0.769 | E -0.683 | V -0.931 | L -0.743 | R -0.762 | M -0.881 | T -0.581
P36: G -0.664 | R -0.603 | I -0.107 | K -0.33 | L -0.079 | E 0.065 | F 0.217 | C -0.527 | T -0.125 | A -0.225 | N -0.542 | W -0.328 | V -0.17 | Q -0.246 | S -0.177 | H -0.553 | Y 0.372 | D -0.357
S23: M -0.257 | Y -0.726 | K -0.529 | T -0.436 | V -0.35 | L -0.276 | H -0.523 | I -0.579 | Q -0.028 | W -0.517 | N -0.175 | R -0.813
V39: A -0.9 | G -0.976 | E -0.906 | L -0.769 | K -0.556 | W -0.896 | R -0.882 | D -0.953 | M -0.944 | I -0.096 | Q -0.455 | P -0.999 | T -0.99 | Y -0.646 | S -0.934
A31: L 0.068 | W -0.494 | Y -0.36 | D -0.888 | P -0.782 | F 0.262 | K -0.364 | T -0.045 | V -0.151 | S -0.292 | G -0.65 | I 0.253 | C -0.287 | M -0.008 | E -0.14 | H -0.514 | R -0.185 | Q -0.001 | N -0.098
L28: I 0.064 | P -0.958 | Q -0.88 | R -0.765 | Y -0.124 | M -0.04 | S -0.981 | F -0.442 | C -0.79 | V -0.378 | E -0.808 | H -0.903 | W -0.788 | G -0.883
